Test results published in US20150203577A1 (Chugai, published 2015).
Residue numbers refer to the chain shown, from its start. Names and notes keep the numbering of the source.

T1: mouse FcγRIII extracellular domain, C-terminal His tag (mouse, UniProt P08508 31-215)
T1 construct: also called mFcγRIII; mFcgRIII
T1 chain: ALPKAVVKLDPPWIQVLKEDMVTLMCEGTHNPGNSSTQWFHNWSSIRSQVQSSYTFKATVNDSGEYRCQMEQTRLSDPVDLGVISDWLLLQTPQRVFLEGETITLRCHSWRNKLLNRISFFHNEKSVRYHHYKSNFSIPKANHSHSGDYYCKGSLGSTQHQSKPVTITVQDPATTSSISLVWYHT

T2: mouse FcγRII extracellular domain, C-terminal His tag (mouse, UniProt P08101 30-210)
T2 construct: also called mFcγRII; mFcgRII
T2 sequence: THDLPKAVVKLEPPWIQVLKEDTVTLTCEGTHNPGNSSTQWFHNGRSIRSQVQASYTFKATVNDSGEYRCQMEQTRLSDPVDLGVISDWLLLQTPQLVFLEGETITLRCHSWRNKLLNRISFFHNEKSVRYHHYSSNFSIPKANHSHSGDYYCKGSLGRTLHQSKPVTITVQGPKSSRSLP

B1: H237-MB535/MRAL-k0 (antibody, mouse IgG1, kappa)
heavy: QVQLQESGPGLVKPSETLSLTCAVSGHSISHDHAWSWVRQPPGEGLEWIGFISYSGITNYNPSLQGRVTISRDNSKNTLYLQMNSLRAEDTAVYYCARSLARTTAMDYWGEGTLVTVSSAKTTPPSVYPLAPGSAAQTNSMVTLGCLVKGYFPEPVTVTWNSGSLSSGVHTFPAVLQSDLYTLSSSVTVPSSTWPSETVTCNVAHPASSTKVDKKIVPRDCGCKPCICQPNEVEEVFIFPPKPKDVLTITLTPKVTCVVVDISKDDPEVQFSWFVDDVEVHTAQTQPREEQFNLTFRSVSELPIMHQDWLNGKEFKCRVNSDAFPAPIERTISKTKGRPKAPQVYTIPPPKEQMAKDKVSLTCMITDFFPEDITVEWQWNGQPAENYKNTQPIMDTDGSYFVYSKLNVQKSNWEAGNTFTCSVLHEGLHNHHTEKSLSHSPGK
light: not shown
notes: copies: 2 + 2
B2: H237-MB773/MRAL-k0 (antibody, mouse IgG1, kappa)
heavy: B1 heavy with Q229E, E235L, L294S, D322A, E329Y, R330K
light: not shown
notes: copies: 2 + 2
B3: H237-MB537/MRAL-k0 (antibody, mouse IgG1, kappa)
heavy: B1 heavy with N320D
light: not shown
notes: copies: 2 + 2
B4: H237-MB630/MRAL-k0 (antibody, mouse IgG1, kappa)
heavy: B1 heavy with Q229E, E235L, L294S, D322A, R330K
light: not shown
notes: copies: 2 + 2
B5: H237-MB780/MRAL-k0 (antibody, mouse IgG1, kappa)
heavy: B1 heavy with Q229E, E235L, L294S, D322A, A323G, R330K
light: not shown
notes: copies: 2 + 2
B6: H237-MB748/MRAL-k0 (antibody, mouse IgG1, kappa)
heavy: B1 heavy with Q229E, E235L, S263A, L294S, D322A, R330K
light: not shown
notes: copies: 2 + 2
B7: H237-MB544/MRAL-k0 (antibody, mouse IgG1, kappa)
heavy: B1 heavy with Q229E, E235M, L294S
light: not shown
notes: copies: 2 + 2
B8: H237-MB770/MRAL-k0 (antibody, mouse IgG1, kappa)
heavy: B1 heavy with Q229E, E235L, L294S, D322A, P327F, R330K
light: not shown
notes: copies: 2 + 2
B9: H237-MB539/MRAL-k0 (antibody, mouse IgG1, kappa)
heavy: B1 heavy with Q229E, E235M, N320D, D322A, R330K
light: not shown
notes: copies: 2 + 2
B10: H237-MB776/MRAL-k0 (antibody, mouse IgG1, kappa)
heavy: B1 heavy with Q229E, E235L, L294S, D322A, R330K, T331Y
light: not shown
notes: copies: 2 + 2
B11: H237-MB779/MRAL-k0 (antibody, mouse IgG1, kappa)
heavy: B1 heavy with Q229E, E235L, L294S, D322A, R330K, S333W
light: not shown
notes: copies: 2 + 2
B12: H237-MB761/MRAL-k0 (antibody, mouse IgG1, kappa)
heavy: B1 heavy with Q229E, E235L, L294M, N320D, D322A
light: not shown
notes: copies: 2 + 2
B13: H237-MB547/MRAL-k0 (antibody, mouse IgG1, kappa)
heavy: B1 heavy with Q229E, E235M
light: not shown
notes: copies: 2 + 2
B14: H237-MB759/MRAL-k0 (antibody, mouse IgG1, kappa)
heavy: B1 heavy with Q229E, E235L, L294S, N320D, D322A
light: not shown
notes: copies: 2 + 2
B15: H237-MB545/MRAL-k0 (antibody, mouse IgG1, kappa)
heavy: B1 heavy with Q229E, E235M, N320D, R330K
light: not shown
notes: copies: 2 + 2
B16: H237-MB749/MRAL-k0 (antibody, mouse IgG1, kappa)
heavy: B1 heavy with Q229E, E235L, Q291L, L294S, D322A, R330K
light: not shown
notes: copies: 2 + 2
B17: H237-MB766/MRAL-k0 (antibody, mouse IgG1, kappa)
heavy: B1 heavy with Q229E, E235L, L294S, N320M, D322A, R330K
light: not shown
notes: copies: 2 + 2
B18: H237-MB710/MRAL-k0 (antibody)
heavy: B1 heavy with Q229E, N231A, E235Q, L294S, D322A, R330K
light: not shown
notes: T0025 prints T230E/V231P/P232N/S238E/S239Q for MB710; EU numbering; copies: 2 + 2
B19: H237-MB751/MRAL-k0 (antibody, mouse IgG1, kappa)
heavy: B1 heavy with Q229E, E235L, L294S, D322A
light: not shown
notes: copies: 2 + 2
B20: H237-MB549/MRAL-k0 (antibody, mouse IgG1, kappa)
heavy: B1 heavy with Q229E, E235M, N320D
light: not shown
notes: copies: 2 + 2
B21: H237-MB760/MRAL-k0 (antibody, mouse IgG1, kappa)
heavy: B1 heavy with Q229E, E235L, N320D, D322A
light: not shown
notes: copies: 2 + 2
B22: H237-MB540/MRAL-k0 (antibody, mouse IgG1, kappa)
heavy: B1 heavy with Q229E, E235M, R330K
light: not shown
notes: copies: 2 + 2
B23: H237-MB756/MRAL-k0 (antibody, mouse IgG1, kappa)
heavy: B1 heavy with Q229E, E235L, D322A
light: not shown
notes: copies: 2 + 2
B24: H237-MB543/MRAL-k0 (antibody, mouse IgG1, kappa)
heavy: B1 heavy with Q229E, E235M, L294S, N320D, D322A
light: not shown
notes: copies: 2 + 2
B25: H237-MB548/MRAL-k0 (antibody, mouse IgG1, kappa)
heavy: B1 heavy with Q229E, E235M, L294S, N320D
light: not shown
notes: copies: 2 + 2
B26: H237-MB536/MRAL-k0 (antibody, mouse IgG1, kappa)
heavy: B1 heavy with L294S, N320D
light: not shown
notes: copies: 2 + 2
B27: H237-MB542/MRAL-k0 (antibody, mouse IgG1, kappa)
heavy: B1 heavy with Q229E, E235M, L294S, N320D, R330K
light: not shown
notes: copies: 2 + 2
B28: H237-MB771/MRAL-k0 (antibody, mouse IgG1, kappa)
heavy: B1 heavy with Q229E, E235L, L294S, D322A, P327Y, R330K
light: not shown
notes: copies: 2 + 2
B29: H237-MB754/MRAL-k0 (antibody, mouse IgG1, kappa)
heavy: B1 heavy with Q229E, E235L, L294S, N320D, D322A, R330K
light: not shown
notes: copies: 2 + 2
B30: H237-MB538/MRAL-k0 (antibody, mouse IgG1, kappa)
heavy: B1 heavy with Q229E, E235M, D322A, R330K
light: not shown
notes: copies: 2 + 2

Molecular target: T1, mouse FcγRIII extracellular domain, …
Assay: SPR (Biacore T200), antibody captured on Protein L, mFcγR analyte
Experimental: (§1) Each altered antibody was analyzed for its interaction with each Fcγ receptor prepared above using Biacore T100 (GE Healthcare Japan Corp.), Biacore T200 (GE Healthcare Japan Corp.), Biacore A100, or Biacore 4000. The running buffer used was HBS-EP+ (GE Healthcare Japan Corp.). The assay temperature was set to 25° C. The sensor chips used were chips prepared by immobilizing Protein L (ACTIGEN or BioVision) onto Series S Sensor Chip CM5 (GE Healthcare Japan Corp.) or Series S Sensor Chip CM4 (GE Healthcare Japan Corp.) by the amine coupling method.
(§2) In order to calculate the KD value of each altered antibody for FcγR, kinetic analysis was conducted according to the following method: first, the antibody of interest was captured onto any of these chips and allowed to interact with mFcγR diluted with a running buffer. For the obtained sensorgram, the assay results were globally fit into the 1:1 Langmuir binding model using Biacore Evaluation Software to calculate an association rate constant ka (L/mol/s) and a dissociation rate constant kd (1/s). From these values, the dissociation constant KD (mol/L) was calculated.

Kd	relative mFcγRIII-binding activity (mIgG1 = 1)	Binder
33.2 nM	8.5 fold vs H237-mIgG1/MRAL-k0	B1
1310 nM	0.2 fold vs H237-mIgG1/MRAL-k0	B2
31.7 nM	8.9 fold vs H237-mIgG1/MRAL-k0	B3
1120 nM	0.3 fold vs H237-mIgG1/MRAL-k0	B4
716 nM	0.4 fold vs H237-mIgG1/MRAL-k0	B5
2060 nM	0.1 fold vs H237-mIgG1/MRAL-k0	B6
87.2 nM	3.2 fold vs H237-mIgG1/MRAL-k0	B7
1170 nM	0.2 fold vs H237-mIgG1/MRAL-k0	B8
147 nM	1.9 fold vs H237-mIgG1/MRAL-k0	B9
1430 nM	0.2 fold vs H237-mIgG1/MRAL-k0	B10
1610 nM	0.2 fold vs H237-mIgG1/MRAL-k0	B11
1570 nM	0.2 fold vs H237-mIgG1/MRAL-k0	B12
62.3 nM	4.5 fold vs H237-mIgG1/MRAL-k0	B13
646 nM	0.4 fold vs H237-mIgG1/MRAL-k0	B14
106 nM	2.7 fold vs H237-mIgG1/MRAL-k0	B15
740 nM	0.4 fold vs H237-mIgG1/MRAL-k0	B16
1060 nM	0.3 fold vs H237-mIgG1/MRAL-k0	B17
232 nM	1.2 fold vs H237-mIgG1/MRAL-k0	B18
890 nM	0.3 fold vs H237-mIgG1/MRAL-k0	B19
52.1 nM	5.4 fold vs H237-mIgG1/MRAL-k0	B20
1020 nM	0.3 fold vs H237-mIgG1/MRAL-k0	B21
99.4 nM	2.8 fold vs H237-mIgG1/MRAL-k0	B22
1330 nM	0.2 fold vs H237-mIgG1/MRAL-k0	B23
126 nM	2.2 fold vs H237-mIgG1/MRAL-k0	B24
71.7 nM	3.9 fold vs H237-mIgG1/MRAL-k0	B25
36.8 nM	7.7 fold vs H237-mIgG1/MRAL-k0	B26
83.3 nM	3.4 fold vs H237-mIgG1/MRAL-k0	B27
1070 nM	0.3 fold vs H237-mIgG1/MRAL-k0	B28
1130 nM	0.2 fold vs H237-mIgG1/MRAL-k0	B29
164 nM	1.7 fold vs H237-mIgG1/MRAL-k0	B30

These binders were tested against T2, mouse FcγRII extracellular domain, … in the same assay as above.
Experimental: as §1, §2

Kd	relative mFcγRII-binding activity (mIgG1 = 1)	Binder
0.498 nM	422 fold vs H237-mIgG1/MRAL-k0	B1
16.5 nM	12.7 fold vs H237-mIgG1/MRAL-k0	B2
0.412 nM	510 fold vs H237-mIgG1/MRAL-k0	B3
14.7 nM	14.3 fold vs H237-mIgG1/MRAL-k0	B4
10.4 nM	20.2 fold vs H237-mIgG1/MRAL-k0	B5
17.9 nM	11.7 fold vs H237-mIgG1/MRAL-k0	B6
0.76 nM	276 fold vs H237-mIgG1/MRAL-k0	B7
15.7 nM	13.3 fold vs H237-mIgG1/MRAL-k0	B8
2 nM	105 fold vs H237-mIgG1/MRAL-k0	B9
18.6 nM	11.3 fold vs H237-mIgG1/MRAL-k0	B10
21 nM	10 fold vs H237-mIgG1/MRAL-k0	B11
15.7 nM	13.4 fold vs H237-mIgG1/MRAL-k0	B12
1.23 nM	170 fold vs H237-mIgG1/MRAL-k0	B13
6.21 nM	33.8 fold vs H237-mIgG1/MRAL-k0	B14
1.29 nM	163 fold vs H237-mIgG1/MRAL-k0	B15
8.3 nM	25.3 fold vs H237-mIgG1/MRAL-k0	B16
15 nM	14 fold vs H237-mIgG1/MRAL-k0	B17
4.13 nM	50.8 fold vs H237-mIgG1/MRAL-k0	B18
8.25 nM	25.4 fold vs H237-mIgG1/MRAL-k0	B19
1 nM	210 fold vs H237-mIgG1/MRAL-k0	B20
14.9 nM	14.1 fold vs H237-mIgG1/MRAL-k0	B21
1.41 nM	149 fold vs H237-mIgG1/MRAL-k0	B22
19.8 nM	10.6 fold vs H237-mIgG1/MRAL-k0	B23
1.08 nM	195 fold vs H237-mIgG1/MRAL-k0	B24
0.589 nM	357 fold vs H237-mIgG1/MRAL-k0	B25
0.53 nM	396 fold vs H237-mIgG1/MRAL-k0	B26
0.547 nM	384 fold vs H237-mIgG1/MRAL-k0	B27
15.2 nM	13.8 fold vs H237-mIgG1/MRAL-k0	B28
10 nM	21 fold vs H237-mIgG1/MRAL-k0	B29
2.44 nM	86.2 fold vs H237-mIgG1/MRAL-k0	B30
